Assay results taken from patent US20110165145A1, “IGF-II/IGF-IIE BINDING PROTEINS” (priority 2008, published 2011).

Experiments:
[1] = molecular target: T1, IGF-IIE (Homo sapiens, UniProt P01344); assay: Affinity measurements of IgGs by SPR (BIACORE), IGF-IIE; type: binding; conditions: IgG
T1 construct: the construct comprising amino acids 1-104, which encompass the E domain

[2] = molecular target: T1, IGF-IIE; assay: IGF-IIE stimulated Ba/F3 cell proliferation, sFabs (MTS assay); type: cell-based; conditions: 72 h
Experimental: (§1) Ba/F3 cells were cultured in complete medium (90% RPMI 1640+10% FBS+10 ng/ml IL-3+2 mM L-Alanyl-Glutamine+1×Pen/Strep). Cells at passage 6 to 15 were used for the high throughput cell proliferation assay. IGF-II (67aa), IGF-IIE (104aa) were at 10 μg/ml in PBS, kept at −70° C. IL-4 was purchased from R&D system, Cat#: 404-ML, and anti-IGF-II antibody was purchased from R&D system, Cat#: MAB292. 34 sFabs from batch 1 and batch 2 in a median scale purification, all in PBS, were screened.
(§2) IGF-II was prepared at concentration of 400 ng/ml; IGF-IIE at 800 ng/ml; sFab at 200 μg/ml in PBS. 25 μl of IGF-II or IGF-IIE was preincubated with 25 μl of sFab in 96-well plate, triplicate for each sFab, 30 min at room temperature in a total volume of 50 μl/well. […]
(§3) The MTS assay was performed as follows: • Add 20 μl of CellTiter 96 Aqueous One Solution Reagent to each well • Incubate at 37° C., 5% CO2 for additional 4 h. • Read plate for absorbance at a microplate spectrophotometer at wavelength 490 nm. […]
(§4) MTS Assay: • Add 20 μl of CellTiter 96 Aqueous One Solution Reagent to each well • Incubate at 37° C., 5% CO2 for additional 4 h. • Read plate for absorbance at a microplate spectrophotometer at wavelength 490 nm.

[3] = molecular target: T2, IGF-II (Homo sapiens, UniProt P01344); assay: IGF-II stimulated Ba/F3 cell proliferation, sFabs (MTS assay); type: cell-based; conditions: 72 h
T2 construct: IGF-II (amino acids 1-67)
T2 sequence (P01344 25-91): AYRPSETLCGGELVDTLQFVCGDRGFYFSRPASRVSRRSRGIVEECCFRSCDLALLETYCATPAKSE
Experimental: as §1, §2, §3, §4

T1 sequence (P01344 25-128): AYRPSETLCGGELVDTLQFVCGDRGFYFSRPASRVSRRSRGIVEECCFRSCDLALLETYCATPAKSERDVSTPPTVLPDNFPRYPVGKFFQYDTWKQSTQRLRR

Molecule	Kd [1] [nM]	inhibitory effect on IGF-IIE stimulated Ba/F3 cell proliferation (screening) ([2]; sFab 50 μg/ml (1 μM), MTS)	inhibitory effect on IGF-IIE stimulated Ba/F3 cell proliferation (dose response, in words) ([2]; sFab 50 μg/ml down to 0)	inhibitory effect on IGF-II stimulated Ba/F3 cell proliferation (screening) ([3]; sFab 50 μg/ml (1 μM), MTS)	inhibitory effect on IGF-II stimulated Ba/F3 cell proliferation (dose response, in words) ([3]; sFab 50 μg/ml down to 0)
X0005-H01: germlined IgG counterpart of M0064-E04 in Table 6 (antibody, V domains shown) VH: EVQLLESGGGLVQPGGSLRLSCAASGFTFSVYDMNWVRQAPGKGLEWVSSISSSGGGTLYADSVKGRFTISRDNSKNTLYLQMNSLRAEDTAVYYCARDSDTSSYYWYYDLWGRGTLVTVSS VL: DIQMTQSPSSLSASVGDRVTITCQASHDISNYLNWYQQKPGKAPKLLIYAASRLQSGVPSRFSGSGSGTDFTLTISSLQPEDFATYYCQQSYSFPRTFGQGTRLEIK	0.26				
M0068-E03: human anti-IGF-II/IGF-IIE Fab from phage display library (protein) light: QDIQMTQSPSSLSASVGDRVTITCRASQSINTYLNWYQQKPGKAPKVLIHAASTLESGVPSRFSGSGSATEFTLTISSLQPEDFATFYCQQSYSVPFTFGPGTRLSSKRTVAAPSVFIFPPSDEQLKSGTASVVCLLNNFYPREAKVQWKVDNALQSGNSQESVTEQDSKDSTYSLSSTLTLSKADYEKHKVYACEVTHQGLSSPVTKSFNRGEC heavy: EVQLLESGGGLVQPGGSLRLSCAASGFTFSEYVMAWVRQAPGKGLEWVSSIVSSGGYTKYADSVKGRFTISRDNSKNTLYLQMNSLRAEDTAVYYCAKDMTYSGDAFDVWGQGTMVTVSSASTKGPSVFPLAPSSKSTSGGTAALGCLVKDYFPEPVTVSWNSGALTSGVHTFPAVLQSSGLYSLSSVVTVPSSSLGTQTYICNVNHKPSNTKVDKKVEPKSCAAAHHHHHHGAAEQKLISEEDLNGAAEASSASNA		significant inhibitory effect	significant inhibitory effect	significant inhibitory effect	significant inhibitory effect
